# Laboratory results taken from publication PMC10284872, “FRET analysis of the temperature-induced structural changes in human TRPV3” (Scientific Reports, 2023).
# Residue numbers refer to the chain shown, from its start. In names and notes the source's numbering stands.
# B1: human TRPV3 single-cysteine construct A131C (cysteine-free background, K169A) (natural protein, UniProt Q8NET8 1-790, looked up)
# chain: MKAHPKEMVPLMGKRVAAPSGNPAILPEKRPAEITPTKKSAHFFLEIEGFEPNPTVAKTSPPVFSKPMDSNIRQAISGNADDMDSPQSPQDDVTETPSNPNSPSAQLAKEEQRRKKRRLKKRIFAAVSEGCVEELVELLVELQELARRRHDEDVPDFLMHKLTASDTGATALMKALLNINPNTKEIVRILLAFAEENDILGRFINAEYTEEAYEGQTALNIAIERRQGDIAALLIAAGADVNAHAKGAFFNPKYQHEGFYFGETPLALAAATNQPEIVQLLMEHEQTDITSRDSRGNNILHALVTVAEDFKTQNDFVKRMYDMILLRSGNWELETTRNNDGLTPLQLAAKMGKAEILKYILSREIKEKRLRSLSRKFTDWAYGPVSSSLYDLTNVDTTTDNSVLEITVYNTNIDNRHEMLTLEPLHTLLHMKWKKFAKHMFFLSFLFYFFYNITLTLVSYYRPREEEAIPHPLALTHKMGWLQLLGRMFVLIWAMLISVKEGIAIFLLRPSDLQSILSDAWFHFVFFIQAVLVILSVFLYLFAYKEYLAFLVLAMALGWANMLYYTRGFQSMGMYSVMIQKVILHDVLKFLFVYIVFLLGFGVALASLIEKAPKDNKDASSYGSFSDAVLELFKLTIGLGDLNIQQNSKYPILFLFLLITYVILTFVLLLNMLIALMGETVENVSKESERIWRLQRARTILEFEKMLPEWLRSRFRMGELAKVAEDDFRLALRINEVKWTEWKTHVSFLNEDPGPVRRTDFNKIQDSSRNNSKTTLNAFEEVEEFPETSV
# modifications: C131 labelled with sulfo-Cy3 maleimide or sulfo-Cy5 maleimide (1:1 mixture) in the FRET samples
# notes: human TRPV3, full length; printed as A131C on the cysteine-free construct, so the native C131 stands again and the other 12 cysteines are replaced; K169A added; Homotetrameric channel in DDM/CHS with lipids; also called hTRPV3 A131C; ARD construct; source: Sf9 cells, baculovirus (Bac-to-Bac), purified (DDM/CHS solubilisation, anti-FLAG resin)
# B2: human TRPV3 single-cysteine construct A721C (cysteine-free background, K169A) (natural protein, UniProt Q8NET8 1-790, looked up)
# chain: B1 chain with C131A, A721C
# modifications: C721 labelled with sulfo-Cy3 maleimide or sulfo-Cy5 maleimide (1:1 mixture) in the FRET samples
# notes: human TRPV3, full length; printed as A721C on the cysteine-free construct, so the native C721 stands again and the other 12 cysteines are replaced; K169A added; Homotetrameric channel in DDM/CHS with lipids; also called hTRPV3 A721C; C-terminal domain construct; source: Sf9 cells, baculovirus (Bac-to-Bac), purified (DDM/CHS solubilisation, anti-FLAG resin)
# B3: human TRPV3 single-cysteine construct L513C (cysteine-free background, K169A) (natural protein, UniProt Q8NET8 1-790, looked up)
# chain: B1 chain with C131A, L513C
# modifications: C513 labelled with sulfo-Cy3 maleimide or sulfo-Cy5 maleimide (1:1 mixture) in the FRET samples
# notes: human TRPV3, full length; all 13 native cysteines replaced, L513C and K169A added; Homotetrameric channel in DDM/CHS with lipids; also called hTRPV3 L513C; S2-S3 linker construct; source: Sf9 cells, baculovirus (Bac-to-Bac), purified (DDM/CHS solubilisation, anti-FLAG resin)
# B4: human TRPV3 single-cysteine construct A619C (cysteine-free background, K169A) (natural protein, UniProt Q8NET8 1-790, looked up)
# chain: B1 chain with C131A, A619C
# modifications: C619 labelled with sulfo-Cy3 maleimide or sulfo-Cy5 maleimide (1:1 mixture) in the FRET samples
# notes: human TRPV3, full length; printed as A619C on the cysteine-free construct, so the native C619 stands again and the other 12 cysteines are replaced; K169A added; Homotetrameric channel in DDM/CHS with lipids; also called hTRPV3 A619C; pore turret construct; source: Sf9 cells, baculovirus (Bac-to-Bac), purified (DDM/CHS solubilisation, anti-FLAG resin)
# Biological target: the molecule itself
# Assay: SEC; fluorescence-detection size-exclusion chromatography (FSEC); heat-treated (42 °C) samples of each construct compared with a heat-untreated sample
row,Protein,stoichiometry N
1,B1,4
2,B2,4
3,B3,4
4,B4,4
